Numbering of substitutions follows the chain as printed.
B1: I23RB318 (antibody, mouse IgG2a, kappa, V domains shown)
VH: QVQLVQSGAEVKKPGSSVKVSCKASGGTFSSYAISWVRQAPGQGLEWMGGIIPIFGTANYAQKFQGRVTITADESTSTAYMELSSLRSEDTAVYYCARVRARHRGSFDYWGQGTLVTVSS
VL: DIQMTQSPSSLSASVGDRVTITCRASQSIDRWLNWYQQKPGKAPKLLIYYASSLQSGVPSRFSGSGSGTDFTLTISSLQPEDFATYYCQQSYSTPLTFGQGTKVEIKR
notes: phage display; human V, mouse IgG2a/kappa
B2: I23RB42 (antibody, mouse IgG2a, kappa, V domains shown)
VH: EVQLQQSGAELVKPGASVKISCKASGYSFTDYIMNWVKQSHGKSLEWIGNINPYFGFTSYNQEFKGKATLTVDKSSSTAYMLLNSLTSEDSAVYYCSRGSYYGYETFFDYWGQGTTLTVSS
VL: DIVLTQTAPSVPVTPGESVSISCRSSKSLLHSNGNTYLYWFLQRPGQSPQLLIYRMSNLASGVPDRFSGSGSGTAFTLRISRVEAEDVGVYYCMQHLEYPYTFGSGTRLEIKR
notes: immunization; mouse IgG2a/kappa
B3: I23RB85 (antibody, mouse IgG2a, kappa, V domains shown)
VH: DVQLQESGPGLVAPSQSLSITCTVSGFSFNTYAITWVRQPPGRGLEWLGVLWPGGGISYNLALKSRLTISRDSSKSQVFLEMNSLQTDDTARYYCARNWRHYDGSYAMDFWGQGTSVTVSS
VL: DIVLTQSPLSLFVSLGDQASISCRSSQSLVHSNGNTYLHWYLQKPGQSPKLLIYKVSNRFSGVPDRFSGSGSGTDFTLKISRVEAEDLGVYFCSQSTHVPWTFGGGTRLEIKR
notes: as for B2
B4: I23RB56 (antibody, mouse IgG2a, kappa, V domains shown)
VH: EVKLVESGGGLVKPGGSLKLSCAASGFTFSSYAMSWVRQTPEKRLEWVAAINSNDGSTYYPDTVKDRFTISRDNAKNTLYLQMSSLRSEDTALYYCARHFLYFSNFYYFDYWGQGTTLTVSS
VL: DIVMTQSPKFLLVSAGDRVTITCKASQSVSNDVAWYQQKPGQSPKLLIYYASNRYTGVPDRFTGSGYGTVFTFTISTVQAEDLAVYFCQQDYSSPFTFGSGTKLEIKR
notes: as for B2
B5: I23RB45 (antibody, mouse IgG2a, kappa, V domains shown)
VH: QVTLKESGPGILQPSQTLSLTCSFSGFSLSTYGMGVSWIRQPSGKGLEWLAHIYWDDDKRYNPSLKSRLTISKDTSNNQVFLKITSVDTADTATYYCAQRALPLLGQKAPFDYWGQGTTLTVSS
VL: DIVLTQSQKFISTSVGDRVSITCKASQNVRTAVAWYQQKPGQSPKLLIYLPSNRHTGVPDRFTGSGSGTVFTLTISNVQSEDQADYFCLQHWNYPLTFGAGTKLELKR
notes: as for B2
B6: I23RB30 (antibody, mouse IgG2a, kappa, V domains shown)
VH: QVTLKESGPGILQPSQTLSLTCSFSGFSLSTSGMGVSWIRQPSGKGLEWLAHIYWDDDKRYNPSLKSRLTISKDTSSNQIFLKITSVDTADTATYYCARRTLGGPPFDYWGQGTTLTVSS
VL: B5 VL with K9R, I11M, V29I, L46A, V70D, Q83L
notes: as for B2
B7: I23RB153 (antibody, mouse IgG2a, kappa, V domains shown)
VH: EVKLVESGGGLVQPGGSLKLSCAASGFTFSSDTMSWVRQTPEKRLELVAEISSNGGSTYHIDTVKGRFTISRDNAKNTLYLQMSSLKSEDTAMYYCASPGYPWFAYWGQGTTVTVSA
VL: DIVMTQSHRFMSTSVGERVSITCKASQDVGNAVAWYQQKPGQSPKLLIYWTSTRHNGVPDRFTGSGSGTDFTLTISNVQGEDLADYFCQQYNRYPLTFGSGTKLEIKR
notes: as for B2
B8: I23RB330 (antibody, mouse IgG2a, kappa, V domains shown)
VH: QVQLVQSGAEVKKPGSSVKVSCKASGGTFSSYAISWVRQAPGQGLEWMGGIIPIFGTANYAQKFQGRVTITADESTSTAYMELSSLRSEDTAVYYCARDRSYSYGLSGLGYYGFDYWGQGTLVTVSS
VL: EIVLTQSPATLSLSPGERATLSCRASQSVSSYLAWYQQKPGQAPRLLIYDASNRATGIPARFSGSGSGTDFTLTISSLEPEDFAVYYCQQRSNTPLTFGQGTKVEIKR
notes: as for B1
B9: I23RB278 (antibody, mouse IgG2a, kappa, V domains shown)
VH: EVQLLESGGGLVQPGGSLRLSCAASGFTFSSYAMSWVRQAPGKGLEWVSAISGSGGSTYYADSVKGRFTISRDNSKNTLYLQMNSLRAEDTAVYYCVRGGSLGGGFYFDYWGQGTLVTVSS
VL: not shown
notes: as for B1
B10: I23RB332 (antibody, mouse IgG2a, kappa, V domains shown)
VH: QVQLQQPGAELVMPGASVKLSCKASGYTFTSYWMHWVKQRPGQGLEWIGEIDPSDSYTNYNQKFKGKSTLTVDKSSSTAYMQLSSLTSEDSAVYYCARSYAFDYWGQGTTVTVSS
VL: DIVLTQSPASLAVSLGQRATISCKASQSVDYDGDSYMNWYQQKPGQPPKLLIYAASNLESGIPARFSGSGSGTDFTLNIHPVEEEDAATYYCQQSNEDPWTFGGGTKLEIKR
notes: phage display; mouse V, mouse IgG2a/kappa
B11: I23RB328 (antibody, mouse IgG2a, kappa, V domains shown)
VH: QVQLVQSGAEVKKPGSSVKVSCKASGGTFSSYAISWVRQAPGQGLEWMGGIIPIFGTANYAQKFQGRVTITADESTSTAYMELSSLRSEDTAVYYCARGRYIRSYDYFDYWGQGTLVTVSS
VL: B8 VL with I58V, S67T, E79Q, F83V, S92N, N93S
notes: as for B1
B12: I23RB104 (antibody, mouse IgG2a, kappa, V domains shown)
VH: EVKLVESGGGLVKPGGSLKLSCAASGFTFSSYAMSWVRQTPEKRLDWVASISTGGSTYYPDSVKGGFTISRDIARNTLSLQMTSLRSEDTAMYYCARGPHYYGGSYPFAYWGQGTTLTVSS
VL: DIQMTQSPASLSVSVGETVTITCRASENIYSNLAWYQQKQGKSPQLLVYAATNLADGVPSRFSGSGSGTQYSLKINSLQSEDFGSYYCQHFWGTPPTFGSGTKLEIKR
notes: as for B2
B13: I23RB6 (antibody, mouse IgG2a, kappa, V domains shown)
VH: B11 VH
VL: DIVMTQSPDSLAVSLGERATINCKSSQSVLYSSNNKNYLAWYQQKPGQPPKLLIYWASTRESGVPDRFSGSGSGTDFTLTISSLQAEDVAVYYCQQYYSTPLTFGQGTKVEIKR
notes: as for B1
B14: I23RB9 (antibody, mouse IgG2a, kappa, V domains shown)
VH: B8 VH
VL: B8 VL with T94W
notes: as for B1

These binders were tested against T1, human IL-23R expressed on the cell surface of stably transfected iLite and HEK cell lines (human, UniProt Q5VWK5 24-629) (assay: flow cytometry on human IL-23R HEK cells, Expt D (8-point, 96well)).
T1 construct: whole, on cells; Same receptor on two transfected cell lines; the cell line is named under assay; also called human IL-23R iLite cells; human IL-23R HEK cells
T1 sequence (looked up): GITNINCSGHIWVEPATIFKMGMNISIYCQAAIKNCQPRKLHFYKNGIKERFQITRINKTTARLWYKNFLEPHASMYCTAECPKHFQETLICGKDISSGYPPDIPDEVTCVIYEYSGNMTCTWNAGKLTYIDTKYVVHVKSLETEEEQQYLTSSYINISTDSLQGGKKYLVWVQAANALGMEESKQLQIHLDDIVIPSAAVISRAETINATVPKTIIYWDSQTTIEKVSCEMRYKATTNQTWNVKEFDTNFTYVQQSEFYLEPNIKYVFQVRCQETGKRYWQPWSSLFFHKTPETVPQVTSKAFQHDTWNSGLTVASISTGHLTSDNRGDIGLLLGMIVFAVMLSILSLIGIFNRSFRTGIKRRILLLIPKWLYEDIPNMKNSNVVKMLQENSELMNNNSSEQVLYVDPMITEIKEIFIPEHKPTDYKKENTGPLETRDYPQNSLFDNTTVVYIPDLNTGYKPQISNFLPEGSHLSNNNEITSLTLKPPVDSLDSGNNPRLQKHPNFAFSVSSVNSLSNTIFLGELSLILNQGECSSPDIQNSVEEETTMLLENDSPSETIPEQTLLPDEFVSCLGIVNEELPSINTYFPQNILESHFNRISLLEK
Outline: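 Serially diluted IL-23R mAbs bound to mixed HEK-IL-23R and parental HEK cells for 30 min at 37 °C, in duplicate. After washes, 647 detection antibody geometric MFI measured on single viable (Sytox Green-negative) cells and fitted to a variable-slope dose-response against log mAb concentration.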

In order of falling EC50:
1. B7  4.4 nM
2. B6  1.2 nM
3. B4  0.7 nM
4. B3  ~0.6 nM
5. B1  0.5 nM
6. B5  0.4 nM
7. B2  0.2 nM

What follows are binders tested against T1, human IL-23R expressed on the cell … (assay: flow cytometry on human IL-23R HEK cells, Expt E (11-point, 384well)).
Outline: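 Antibody bound to HEK-IL-23R cells 30 min at 37 °C over 11 concentrations; after washes, Sytox Green added and cells run on iQue. Geometric MFI of 647 detection antibody on single viable cells fitted by variable-slope dose–response.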

First: B1
Second: B2
The EC50 of the first is 2.3-fold higher: 7.1 nM for the first, 3.1 nM for the second.

Compared with B3, B4 is higher in EC50: 13.5 nM for the first, > 50 nM for the second. The first is the more potent here.

First: B5
Second: B6
The EC50 of the first is 1.8-fold lower: 4.5 nM for the first, 8.3 nM for the second.

In the case of B7, the EC50 is reported as > 50 nM.

In order of falling “MFI (6.4 nM)” value:
1. B2  353000 MFI
2. B5  228000 MFI
3. B1  196000 MFI
4. B6  185000 MFI
5. B4  118000 MFI
6. B3  64000 MFI
7. B7  52800 MFI

These binders were tested against T2, human IL-23R extracellular domain (ECD) protein (human, UniProt Q5VWK5 24-355) (assay: column 'Affinity to hu IL-23R ECD' (summary of SPR data)).
T2 construct: Recombinant ECD; also called hu IL-23R ECD
T2 sequence: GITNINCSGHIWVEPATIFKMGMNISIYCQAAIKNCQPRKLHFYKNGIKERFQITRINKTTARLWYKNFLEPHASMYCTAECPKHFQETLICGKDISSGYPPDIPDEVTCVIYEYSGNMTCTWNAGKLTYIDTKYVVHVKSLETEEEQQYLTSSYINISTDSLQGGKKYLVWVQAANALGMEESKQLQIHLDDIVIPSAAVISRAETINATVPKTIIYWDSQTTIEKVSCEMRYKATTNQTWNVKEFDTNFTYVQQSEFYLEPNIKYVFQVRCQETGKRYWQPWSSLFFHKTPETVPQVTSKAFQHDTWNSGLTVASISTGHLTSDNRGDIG

Going from B1 to B2, the Kd falls from 21 nM to ≤ 0.1 nM. The second binds more tightly here.

Compared with B3, B4 is higher in Kd: 1 nM for the first, 26 to 68 nM for the second. The first binds more tightly here.

Compared with B5, B6 is higher in Kd: 2 nM for the first, 36 to 46 nM for the second.

Work on B7 yielded a Kd of 2 nM.

The binders below were run against T1, human IL-23R expressed on the cell … (assay: flow cytometry on human IL-23R HEK cells, Expt D (8-point, 96well); legend: N-No cell binding observed).
Description: HEK-IL-23R cell concentration response mAb binding (8-point, 96-well assay). […] HEK-IL-23R and HEK-parental cells (12.5 μL of each, 120000 cells total) were plated in 2× replicate on 96-well V-bottom plates (Corning, Cat #3357) into 37° C. warmed Assay medium containing serially diluted IL-23R mAbs to a final volume of 150 μL. IL-23R mAbs were allowed to bind to cells for 30 minutes, at 37° C. […] Cells were next washed twice in ice-cold stain buffer, then resuspended in a final volume of 30 μL with Sytox Green viability dye (ThermoFisher, Cat #S7020). Plates were kept on ice until run for analysis on the iQue. All washes were performed by centrifugation (800 rcf, 3 minutes) followed by flick decantation to remove supernatants. Cell-binding to HEK-IL-23R cells was measured with FlowJo, by gating for single, viable cells and determining the geometric mean fluorescence intensity (MFI) for the 647 detection antibody. Geometric mean fluorescence intensities were plotted over log mAb concentrations fitted with a dose response curve with variable slope using GraphPad Prism.

B8: no binding.
B9: no binding.
B10: no binding.
B11: no binding.
B12: no binding.

These binders were tested against T1, human IL-23R expressed on the cell … (assay: flow cytometry on human IL-23R iLite cells, Expt A (1-point)).
Description: Human IL-23R iLiTe cell single concentration mAb Binding. Anti-IL-23R mouse IgG₂ₐ mAbs derived from phage panning were tested for binding to human IL-23R expressing iLiTe cells, where a PE conjugated anti mouse secondary antibody detected mAbs bound to the receptor on the cells. […] The next day 100,000 cells were added to each well of a 96 well V bottom plate (Costar, Catalog #3357), centrifuged at 450× gravity for 2 minutes, and then supernatants were decanted. […] Antibodies diluted to 3 μg/mL in Stain Buffer (BSA) (BD Pharmagen, Catalog #554657) were added at 100 μL/well and incubated on ice for 50 minutes, then plates were centrifuged and supernatants were decanted. […] Cells were washed by adding 100 μL/well of Stain Buffer followed by centrifugation and decanting of the supernatants. Cells were resuspended in 100 μL/well of Stain Buffer and analyzed on the Becton Dickenson LSR II FACS instrument with HTS module. Data was analyzed using FlowJo software (Treestar) to obtain geometric mean fluorescence intensities.

In order of rising “MFI @ 20 nM” value:
1. B14  86 MFI
2. B13  139 MFI

Source: patent publication US20250179196A1 (Janssen / Centocor, published 2025)
